Patent US20220332804A1 (CSL INNOVATION, published 2022)

Key:
human complement C2 [1] = target: T1, human complement C2 (human, UniProt P06681 21-752); experiment: SPR, mAb captured, C2 analyte, HBS-EP, pH 7.3
T1 construct: Recombinant full-length human C2 with C-terminal 8x His tag, purified from Expi293F supernatant; also called human C2; huC2
T1 sequence: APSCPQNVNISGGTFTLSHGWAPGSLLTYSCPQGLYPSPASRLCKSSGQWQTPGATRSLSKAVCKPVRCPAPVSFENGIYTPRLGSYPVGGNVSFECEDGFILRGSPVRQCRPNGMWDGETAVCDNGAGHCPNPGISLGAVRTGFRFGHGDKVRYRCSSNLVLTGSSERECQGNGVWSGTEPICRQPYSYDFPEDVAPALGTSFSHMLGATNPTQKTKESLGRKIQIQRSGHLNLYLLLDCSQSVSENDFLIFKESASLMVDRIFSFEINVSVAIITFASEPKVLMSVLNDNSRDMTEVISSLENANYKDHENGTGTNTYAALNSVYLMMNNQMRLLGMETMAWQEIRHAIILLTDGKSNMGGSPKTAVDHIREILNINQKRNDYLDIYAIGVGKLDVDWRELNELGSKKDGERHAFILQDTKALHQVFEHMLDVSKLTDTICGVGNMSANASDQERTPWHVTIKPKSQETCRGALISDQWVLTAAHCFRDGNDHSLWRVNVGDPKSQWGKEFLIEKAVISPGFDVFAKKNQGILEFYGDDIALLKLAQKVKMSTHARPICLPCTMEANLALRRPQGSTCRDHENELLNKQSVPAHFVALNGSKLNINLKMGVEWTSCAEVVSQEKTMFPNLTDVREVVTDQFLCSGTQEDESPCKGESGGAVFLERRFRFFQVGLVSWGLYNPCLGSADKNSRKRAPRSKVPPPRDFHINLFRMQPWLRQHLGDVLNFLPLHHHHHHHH
Method: (§1) Surface plasmon resonance (SPR, Biacore) was used for all binding affinity analyses. In brief, goat anti-human IgG was directly immobilised onto the carboxymethyl dextran surface of CM5 sensorchips to approximately 12,000 RU using standard NHS/EDC chemistry at pH 5. The immobilised antibody surface was pre-conditioned with ten injections of polyclonal human IgG (Privigen 60 s) prepared at 1 μg/mL. Ligands (anti-C2 mAbs) were captured at the beginning of each cycle as described below. An adjacent spot or flow cell in which only Polyclonal IgG was capture was used as a reference surface. The goat anti-human IgG Fc antibody surface was regenerate in 100 mM H3PO4, injected for 45 seconds at the end of each cycle. Experiments were performed at 37° C. and the flow rate of each experiment was kept constant at 30 μL/min.
(§2) The pH dependent anti-C2 antibodies and their germlined versions were tested for their affinity to C2 at pH 7.3 (neutral pH) and pH 6.0 (early endosome pH) using the SPR methods described above in HBS-EP buffer.

human complement C2 [2] = target: T1, human complement C2; experiment: SPR, mAb captured, C2 analyte, HBS-EP, pH 6.0
Method: as §1, §2

cynomolgus monkey C2 [3] = target: T2, cynomolgus monkey C2 (cynomolgus monkey, UniProt G8F3W0 21-752); experiment: SPR, mAb captured, cyno C2 analyte, pH 7.3
T2 construct: also called cyno C2
T2 sequence: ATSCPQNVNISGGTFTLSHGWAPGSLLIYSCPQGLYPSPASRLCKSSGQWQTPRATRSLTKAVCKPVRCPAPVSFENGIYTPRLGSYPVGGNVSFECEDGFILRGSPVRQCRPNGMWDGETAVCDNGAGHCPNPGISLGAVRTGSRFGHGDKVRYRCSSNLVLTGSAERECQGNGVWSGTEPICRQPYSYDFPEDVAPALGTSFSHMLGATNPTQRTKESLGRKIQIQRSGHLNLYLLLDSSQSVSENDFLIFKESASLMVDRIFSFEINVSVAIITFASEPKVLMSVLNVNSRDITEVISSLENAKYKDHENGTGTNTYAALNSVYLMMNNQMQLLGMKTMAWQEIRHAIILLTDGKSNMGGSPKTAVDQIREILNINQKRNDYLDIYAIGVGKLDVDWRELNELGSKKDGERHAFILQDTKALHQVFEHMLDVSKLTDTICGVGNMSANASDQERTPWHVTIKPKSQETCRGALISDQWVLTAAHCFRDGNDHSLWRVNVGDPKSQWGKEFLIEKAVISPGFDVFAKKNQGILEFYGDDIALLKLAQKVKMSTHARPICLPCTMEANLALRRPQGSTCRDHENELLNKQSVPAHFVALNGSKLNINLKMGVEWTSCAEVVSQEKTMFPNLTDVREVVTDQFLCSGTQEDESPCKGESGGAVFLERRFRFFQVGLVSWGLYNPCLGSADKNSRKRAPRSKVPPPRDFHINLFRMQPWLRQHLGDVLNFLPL
Method: as §1
(§3) In addition to human C2, the pH dependent anti-C2 antibodies were also tested for their ability to bind to C2 from other mammalian species using the SPR methods described above in order to identify suitable surrogate species for in vivo testing. The antibodies were tested for binding at neutral pH against C2 from cynomolgus monkeys, mice, dogs, rabbits, rats, pigs, and sheep.

cynomolgus monkey C2 [4] = target: T2, cynomolgus monkey C2; experiment: SPR, mAb captured, cyno C2 analyte, pH 6.0
Method: as §1, §3

cynomolgus monkey C2 [5] = target: T2, cynomolgus monkey C2; experiment: cell-based or functional assay
human complement C2 [6] = target: T1, human complement C2; experiment: SPR, mAb captured, C2 analyte, MHAs buffer, pH 6.0, steady state
Method: as §1
(§4) This buffer contains ammonium sulfate instead of sodium chloride.

mouse C2 = target: T3, mouse C2 (mouse, UniProt P21180 19-760, limits assumed); experiment: SPR, mouse C2, pH 7.3; VWB = very weak binding, KD not determined
T3 sequence (looked up): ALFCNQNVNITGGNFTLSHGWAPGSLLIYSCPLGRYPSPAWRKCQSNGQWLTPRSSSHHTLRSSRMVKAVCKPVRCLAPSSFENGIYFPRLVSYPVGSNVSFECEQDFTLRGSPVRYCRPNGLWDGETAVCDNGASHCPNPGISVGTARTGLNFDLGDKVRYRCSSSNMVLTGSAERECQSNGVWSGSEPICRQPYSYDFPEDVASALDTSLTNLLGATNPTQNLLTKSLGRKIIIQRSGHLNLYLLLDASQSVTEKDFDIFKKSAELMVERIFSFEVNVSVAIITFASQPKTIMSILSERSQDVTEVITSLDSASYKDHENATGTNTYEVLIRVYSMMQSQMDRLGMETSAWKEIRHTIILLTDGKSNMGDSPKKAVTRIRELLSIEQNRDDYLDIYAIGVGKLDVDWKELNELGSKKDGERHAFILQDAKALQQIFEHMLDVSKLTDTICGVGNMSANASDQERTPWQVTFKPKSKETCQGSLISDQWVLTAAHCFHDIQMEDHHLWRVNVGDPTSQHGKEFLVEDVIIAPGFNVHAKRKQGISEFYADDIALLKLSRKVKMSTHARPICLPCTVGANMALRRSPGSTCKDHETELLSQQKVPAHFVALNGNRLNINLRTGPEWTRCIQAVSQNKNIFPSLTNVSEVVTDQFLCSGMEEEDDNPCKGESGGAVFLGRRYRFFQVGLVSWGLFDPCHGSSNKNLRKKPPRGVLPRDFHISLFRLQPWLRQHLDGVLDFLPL

human complement C2 [7] = target: T1, human complement C2; experiment: SPR, mAb captured, C2 analyte, MHAs buffer, pH 7.3
Method: as §1, §4

human complement C2 [8] = target: T1, human complement C2; experiment: SPR, mAb captured, C2 analyte, MHAs buffer, pH 5.8, steady state
Method: as §1, §4

human complement C2 [9] = target: T1, human complement C2; experiment: cell-based or functional assay
cynomolgus monkey C2 [10] = target: T2, cynomolgus monkey C2; experiment: cell-based or functional assay; remark: listed apart in the source
human complement C2 [11] = target: T1, human complement C2; experiment: cell-based or functional assay; remark: listed apart in the source

| Kd (human complement C2 [1]) [nM] | Kd (human complement C2 [2]) [nM] | Kd (cynomolgus monkey C2 [3]) [nM] | Kd (cynomolgus monkey C2 [4]) [nM] | IC50, inhibition of cynomolgus classical complement pathway (Wieslab assay) (cynomolgus monkey C2 [5]) [nM] | IC50, inhibition of cynomolgus lectin complement pathway (Wieslab assay) (cynomolgus monkey C2 [5]) [nM] | Kd (human complement C2 [6]) [nM] | binding result (mouse C2) | Kd (human complement C2 [7]) [nM] | Kd (human complement C2 [8]) [nM] | IC50, inhibition of human classical complement pathway (Wieslab assay) (human complement C2 [11]) [nM] | IC50, inhibition of human lectin complement pathway (Wieslab assay) (human complement C2 [11]) [nM] | Binder | IC50, inhibition of human classical pathway (hemolysis assay) (human complement C2 [9]) [nM] | IC50, inhibition of cyno classical pathway (hemolysis assay) (cynomolgus monkey C2 [10]) [nM] | IC50, inhibition of cyno classical pathway (hemolysis assay), mean of three experiments (cynomolgus monkey C2 [10]) [nM] |
| --- | --- | --- | --- | --- | --- | --- | --- | --- | --- | --- | --- | --- | --- | --- | --- |
| 25.1 | 53.9 | 41.5 | 111 | 135 | 223 | 1480 | binds | 176 | 3340 | 20.3 | 6.4 | RF16-214G (antibody, V domains shown) VH: EVQLLESGGGLVQPGGSLRLSCAASGFTFSWYQMMWVRQAPGKGLEWVSRIYPSGGGTAYADSVKGRFTISRDNSKNTLYLQMNSLRAEDTAVYYCARDAGYGDNWGQGTLVTVSS VL: SYELTQPPSVSVSPGQTASITCSGDKLGEKYASWYQQKPGQSPVLVIYQDRKRPSGIPERFSGSNSGNTATLTISGTQAMDEADYYCQAWDTRAVVFGGGTKLTVLG | 337 | 396 | – |
| 18.9 | 13 | 35.7 | 87.3 | 8.73 | 42.9 | – | binds | – | – | 1.64 | 1.62 | RF16-191G (antibody, V domains shown) VH: EVQLLESGGGLVQPGGSLRLSCAASGFTFSKYWMGWVRQAPGKGLEWVSSIYSSGGWTYYADSVKGRFTISRDNSKNTLYLQMNSLRAEDTAVYYCARRPRSFSGSYYRAFDIWGQGTMVTVSS VL: DIQMTQSPSSLSASVGDRVTITCRASQSITDYLNWYQQKPGKAPKLLIYAASSLQSGVPSRFSGSGSGTDFTLTISSLQPEDFATYYCQQSYSSSITFGQGTRLDLKR | 94 | 213 | – |
| 506 | – | 485 | – | 14100 | 5780 | – | binds | – | – | 2030 | 33.2 | RF16-203G (antibody, V domains shown) VH: EVQLLESGGGLVQPGGSLRLSCAASGFTFSRYYMMWVRQAPGKGLEWVSSIGSSGGTTNYADSVKGRFTISRDNSKNTLYLQMNSLRAEDTAVYYCAKGGMVLGVVNIWGQGTLVTVSS VL: SYELTQPPSVSVSPGQTASITCSGDKLGEKYVSWYQQKPGQSPVLVIYQDIKRPSGIPERFSGSNSGNTATLTISGTQAMDEADYYCQTWGTGGIQVFGGGTKLTVLG | – | – | – |

Continued, binder first:

| Binder | Kd (human complement C2 [1]) [nM] | Kd (human complement C2 [2]) [nM] | Kd (cynomolgus monkey C2 [3]) [nM] | Kd (cynomolgus monkey C2 [4]) [nM] | IC50, inhibition of cynomolgus classical complement pathway (Wieslab assay) (cynomolgus monkey C2 [5]) [nM] | IC50, inhibition of cynomolgus lectin complement pathway (Wieslab assay) (cynomolgus monkey C2 [5]) [nM] | Kd (human complement C2 [6]) [nM] | binding result (mouse C2) | Kd (human complement C2 [7]) [nM] | Kd (human complement C2 [8]) [nM] | IC50, inhibition of human classical complement pathway (Wieslab assay) (human complement C2 [11]) [nM] | IC50, inhibition of human lectin complement pathway (Wieslab assay) (human complement C2 [11]) [nM] | IC50, inhibition of human classical pathway (hemolysis assay) (human complement C2 [9]) [nM] | IC50, inhibition of cyno classical pathway (hemolysis assay) (cynomolgus monkey C2 [10]) [nM] | IC50, inhibition of cyno classical pathway (hemolysis assay), mean of three experiments (cynomolgus monkey C2 [10]) [nM] |
| --- | --- | --- | --- | --- | --- | --- | --- | --- | --- | --- | --- | --- | --- | --- | --- |
| RF16-242 (antibody, V domains shown) VH: EVQLLQSGAEVKKPGESLKISCKGSGYSFTSYWIGWVRQMPGKGLEWMGIIYPGDSDTRYSPSFQGQVTISADKSISTAYLQWSSLKASDTAMYYCARRGHYGDYFDYWGQGTLVTVSS VL: SYELTQPPSVSVSPGQTARITCSGDALPKKYAYWYHQKSGQAPVLVIYEDRRRPSEIPERFSGSSSGTMATLTITGAQVEDEGVYFCYSRDRAGNQRVFGGGTQLTVLG | 7 | 16 | 5.2 | 134 | 8.97 | 91.1 | 11600 | – | 460 | 32000 | 9.19 | 2.91 | 55.4 | 642 | – |
| RF16-242G (antibody, V domains shown, Germlined version of RF16-242) VH: EVQLVQSGAEVKKPGESLKISCKGSGYSFTSYWIGWVRQMPGKGLEWMGIIYPGDSDTRYSPSFQGQVTISADKSISTAYLQWSSLKASDTAMYYCARRGHYGDYFDYWGQGTLVTVSS VL: SYELTQPPSVSVSPGQTARITCSGDALPKKYAYWYQQKSGQAPVLVIYEDRRRPSGIPERFSGSSSGTMATLTISGAQVEDEADYYCYSRDRAGNQRVFGGGTQLTVLG | 6.7 | 14 | 4.4 | 132 | 19.3 | 275 | 12000 | binds | 558 | 47000 | 26.3 | 3.19 | 80.3 | 302 | – |
| RF16-226G (antibody) heavy: not shown light: SYELTQPPSVSVSPGQTARITCSGDALTSKYVAWYQQKSGQAPVLVIYEDTRRPSGIPERFSGSSSGTMATLTISGAQVEDEADYYCYSTDASGHQRVFGGGTKLTVLGQPKAAPSVTLFPPSSEELQANKATLVCLISDFYPGAVTVAWKADSSPVKAGVETTTPSKQSNNKYAASSYLSLTPEQWKSHRSYSCQVTHEGSTVEKTVAPTECS | 10 | 128 | 4.7 | 114 | 8.24 | 66.5 | 1900 | binds | 45.6 | 4060 | 5.58 | 3.25 | 230 | – | 176 |
